According to patent publication EP4534554A1 (Corregene Biotechnology Co., Ltd., dated 2025):
Substitutions are numbered along the chain they refer to.

T1: MAGE-A1 peptide on HLA-A*02:01 (human)
T1 peptide: KVLEYVIKV

B1: A1A2-M01-612 (TCR, V domains shown)
Valpha: GEDVEQSLFLSVREGDSSVINCTYVDPYSTYLYWYKQEPGAGLQLLTYIFSFMDMKQDQRLTVLLNKKDKHLSLRIADTQTGDSAIYFCAGSGGGTDKLIFGTGTRLQVFP
Vbeta: GAVVSQHPSWVICKSGTSVKIECRSLDFEATTMFWYRQFPKQSLMLMATSNEGSKATYEQGVEKDKFLINHASLTLSTLTVTSAHPEDSSFYICSAREPWDPWYEQYFGPGTRLTVT
B2: A1A2-M01-621 (TCR, V domains shown)
Valpha: B1 Valpha with V25T, P27S, Y28E, S29F, S51A, M53E, D54S
Vbeta: B1 Vbeta with S50T, N51D, E52Y, W100G, D101Q, P102G, W103P, Y104W
B3: A1A2-M01-617 (TCR, V domains shown)
Valpha: B1 Valpha with V25P, P27M, Y28F, S51A, D54Q
Vbeta: B1 Vbeta with S54D, K55Q, W100G, D101Q, P102G, W103P, Y104W
B4: A1A2-M01-624 (TCR, V domains shown)
Valpha: B1 Valpha with V25Q, D26Y, P27G, Y28M
Vbeta: B1 Vbeta with S50T, N51D, E52Y, W100G, D101Q, P102G, W103P, Y104W
B5: A1A2-M01-622 (TCR, V domains shown)
Valpha: B1 Valpha with V25T, P27S, Y28S, S51A, M53E, D54S
Vbeta: B1 Vbeta with S50T, N51D, E52Y, W100G, D101Q, P102G, W103P, Y104W
B6: A1A2-M01-625 (TCR, V domains shown)
Valpha: B1 Valpha with V25T, P27S, Y28S, S29M, S51A, M53E, D54S
Vbeta: B1 Vbeta with S50T, N51D, E52Y, W100G, D101Q, P102G, W103P, Y104W
B7: A1A2-M01-616 (TCR, V domains shown)
Valpha: B1 Valpha with V25T, P27S, Y28S, S29Q, S51A, D54Q
Vbeta: B1 Vbeta with S50T, N51D, E52Y, W100G, D101Q, P102G, W103P, Y104W
B8: A1A2-M01-623 (TCR, V domains shown)
Valpha: B1 Valpha with V25T, P27S, Y28S, S29Q, S51I, M53Q, D54A
Vbeta: B1 Vbeta with S50T, N51D, E52Y, W100G, D101Q, P102G, W103P, Y104W
B9: A1A2-M01-626 (TCR, V domains shown)
Valpha: B1 Valpha with V25P, P27M, Y28F, S51A, D54Q
Vbeta: GAVVSQHPSWVICKSGTSVKIECRSLDFPIERMFWYRQFPKQSLMLMATTDYGSKATYEQGVEKDKFLINHASLTLSTLTVTSAHPEDSSFYICSAREPGQGPFEQYFGPGTRLTVT
B10: A1A2-M01-613 (TCR, V domains shown)
Valpha: B1 Valpha with V25T, P27S, Y28S, S29L
Vbeta: B9 Vbeta with P29Q, I30A, E31T, R32T, F104W
B11: A1A2-M01-620 (TCR, V domains shown)
Valpha: B1 Valpha with V25T, P27S, Y28S, S29Q, F52N
Vbeta: B1 Vbeta with S50T, N51D, E52Y, W100G, D101Q, P102A, Y104S, E105D
B12: A1A2-M01-614 (TCR, V domains shown)
Valpha: B1 Valpha with V25S, P27M, Y28L, S51I, M53Q, D54A
Vbeta: B9 Vbeta with P29E, I30A, E31T, R32T, F104W
B13: ht27WT (TCR, V domains shown)
V domain 1: RGEDVEQSLFLSVREGDSSVINCTYTDSSSTYLYWYKQEPGAGLQLLTYIFSNMDMKQDQRLTVLLNKKDKHLSLRIADTQTGDSAIYFCAGSGGGTDKLIFGTGTRLQVFP
V domain 2: GAVVSQHPSWVICKSGTSVKIECRSLDFQATTMFWYRQFPKQSLMLMATSNEGSKATYEQGVEKDKFLINHASLTLSTLTVTSAHPEDSSFYICSAREPGQGPYEQYFGPGTRLTVTE

target: MAGE-A1 target antigen peptide … presented by HLA-A*02:01 on cells (human); assay: cell-based or functional assay

First: B1
Second: B2
The EC50 Value (M), JKR9 reporter activation by peptide-loaded T2 cells of the first is 1.6-fold lower: 2.3e-08 M for the first, 3.57e-08 M for the second.

B3 and B4 are within 1.5-fold of each other in EC50 Value (M), JKR9 reporter activation by peptide-loaded T2 cells: 2.61e-08 M for the first, 2.59e-08 M for the second.

Going from B5 to B6, the EC50 Value (M), JKR9 reporter activation by peptide-loaded T2 cells rises from 1.76e-08 M to 3.52e-08 M (2-fold).

B7 and B8 are within 1.5-fold of each other in EC50 Value (M), JKR9 reporter activation by peptide-loaded T2 cells: 3.23e-08 M for the first, 3.06e-08 M for the second.

B9 and B10 are within 1.5-fold of each other in EC50 Value (M), JKR9 reporter activation by peptide-loaded T2 cells: 2.26e-08 M for the first, 2.62e-08 M for the second.

B11 and B12 are within 1.5-fold of each other in EC50 Value (M), JKR9 reporter activation by peptide-loaded T2 cells: 2.5e-08 M for the first, 2.94e-08 M for the second.

target: MAGE-A1 Dextramer (human); assay: KD-SPR estimated from Dextramer staining MFI by the linear formula of Figure 6; not measured by SPR

Going from B1 to B2, the Kd rises from 0.00294 nM to 0.0747 nM (25-fold). The first binds more tightly here.

Compared with B3, B4 is 1.5-fold higher in Kd: 0.0432 nM for the first, 0.0651 nM for the second.

B5 and B6 are within 1.5-fold of each other in Kd: 0.028 nM for the first, 0.0222 nM for the second.

Compared with B7, B8 is 18-fold higher in Kd: 0.0186 nM for the first, 0.337 nM for the second. The first binds more tightly here.

First: B10
Second: B11
The Kd of the first is 16-fold lower: 0.0338 nM for the first, 0.524 nM for the second. The first binds more tightly here.

For B12, the Kd was 0.208 nM.

target: T2, MAGE-A1 target antigen peptide … presented by HLA-A*02:01 on cells (human); assay: cell-based or functional assay

With B13 the “EC50 Value (M), JKR9 reporter activation by peptide-loaded T2 cells” value was 1.67e-05 M.

Target: T1, MAGE-A1 peptide on HLA-A*02:01
Assay: MAGE-A1 Dextramer gradient on transduced JKR9; unit inferred; full-length, on cells

Compared with B1, B2 is 2.5-fold higher in “EC50 of Dextramer staining” value: 0.0475 nM for the first, 0.121 nM for the second.

B3 and B4 are within 1.5-fold of each other in “EC50 of Dextramer staining” value: 0.103 nM for the first, 0.116 nM for the second.

B5 and B6 are within 1.5-fold of each other in “EC50 of Dextramer staining” value: 0.0911 nM for the first, 0.0852 nM for the second.

Compared with B7, B8 is 2.3-fold higher in “EC50 of Dextramer staining” value: 0.0808 nM for the first, 0.187 nM for the second.

First: B10
Second: B11
The “EC50 of Dextramer staining” value of the first is 2.2-fold lower: 0.0961 nM for the first, 0.212 nM for the second.

B12 was tested, and the “EC50 of Dextramer staining” value was 0.163 nM.

Target: T1, MAGE-A1 peptide on HLA-A*02:01
Assay: JKR9 reporter + peptide-loaded T2, 16 h; full-length, on cells

First: B1
Second: B2
The EC50 of peptide of the first is 1.6-fold lower: 23 nM for the first, 35.7 nM for the second.

B3 and B4 are within 1.5-fold of each other in EC50 of peptide: 26.1 nM for the first, 25.9 nM for the second.

Going from B5 to B6, the EC50 of peptide rises from 17.6 nM to 35.1 nM (2-fold).

B7 and B8 are within 1.5-fold of each other in EC50 of peptide: 32.3 nM for the first, 30.6 nM for the second.

B9 and B10 are within 1.5-fold of each other in EC50 of peptide: 22.6 nM for the first, 26.2 nM for the second.

B11 and B12 are within 1.5-fold of each other in EC50 of peptide: 25 nM for the first, 29.4 nM for the second.

Target: T1, MAGE-A1 peptide on HLA-A*02:01
Assay: KD-SPR estimated from Dextramer MFI by the formula calibrated on gp100 TCRs, not measured; unit inferred; full-length, on cells

Going from B1 to B2, the Kd rises from about 0.00294 nM to about 0.0747 nM (25-fold).

Going from B3 to B4, the Kd rises from about 0.0432 nM to about 0.0651 nM (1.5-fold).

B5 and B6 are within 1.5-fold of each other in Kd: about 0.028 nM for the first, about 0.0222 nM for the second.

Going from B7 to B8, the Kd rises from about 0.0186 nM to about 0.337 nM (18-fold). The first binds more tightly here.

Going from B10 to B11, the Kd rises from about 0.0338 nM to about 0.524 nM (16-fold).

B12 showed a Kd of about 0.208 nM.

target: MAGE-A1 Dextramer (human); assay: MAGE-A1 Dextramer gradient staining (MFI) of cells expressing the TCR, flow cytometry

Compared with B1, B2 is 2.5-fold higher in EC50: 0.0475 nM for the first, 0.121 nM for the second. The first is the more potent here.

B3 and B4 are within 1.5-fold of each other in EC50: 0.103 nM for the first, 0.116 nM for the second.

B5 and B6 are within 1.5-fold of each other in EC50: 0.0911 nM for the first, 0.0852 nM for the second.

First: B7
Second: B8
The EC50 of the first is 2.3-fold lower: 0.0808 nM for the first, 0.187 nM for the second.

Compared with B10, B11 is 2.2-fold higher in EC50: 0.0961 nM for the first, 0.212 nM for the second. The first is the more potent here.

B12 gave an EC50 of 0.163 nM.

target: T2, MAGE-A1 target antigen peptide … …; assay: cell-based or functional assay; remark: another data set of the same source

With B13 the “EC50 Value (M), JKR9 reporter activation by peptide-loaded T2 cells” value was 2.31e-06 M.
